Data taken from paper PMC12329599, “Acetylation of microtubule-binding PinX1 orchestrates ribosome biogenesis to nutrient starvation via the RNA polymerase I preinitiation complex” (The Journal of Biological Chemistry, 2025).
Blank lines part the entries; values can stand above or below the binder they belong to.

Molecular target: T1, Strep2-POLR1G (human, UniProt O15446 1-510)
T1 construct: POLR1G (RNA polymerase I subunit G), human, cloned into pET45a-Strep2; also called Strep2-tagged POLR1G; source: TSsetta (DE3) bacteria, purified (anti-Strep2 tag agarose beads)
T1 sequence (O15446 whole entry): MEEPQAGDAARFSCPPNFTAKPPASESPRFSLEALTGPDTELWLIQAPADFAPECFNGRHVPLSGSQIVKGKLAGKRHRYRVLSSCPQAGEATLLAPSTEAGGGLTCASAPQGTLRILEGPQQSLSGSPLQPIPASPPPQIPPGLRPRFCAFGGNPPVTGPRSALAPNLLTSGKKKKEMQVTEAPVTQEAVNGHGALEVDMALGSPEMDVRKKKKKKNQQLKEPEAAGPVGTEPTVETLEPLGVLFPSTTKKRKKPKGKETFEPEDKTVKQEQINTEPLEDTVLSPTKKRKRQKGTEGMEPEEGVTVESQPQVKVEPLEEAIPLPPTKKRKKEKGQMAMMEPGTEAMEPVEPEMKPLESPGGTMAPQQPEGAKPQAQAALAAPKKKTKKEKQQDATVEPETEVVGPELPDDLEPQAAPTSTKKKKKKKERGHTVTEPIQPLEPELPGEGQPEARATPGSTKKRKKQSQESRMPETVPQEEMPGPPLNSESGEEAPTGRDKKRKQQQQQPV
Assay: pull-down; GST-PinX1 proteins on glutathione beads incubated with purified Strep2- or HA-tagged proteins in BC200 buffer (200 mM NaCl, 20 mM Tris-HCl pH 7.9, 20% glycerol, 0.2% NP-40) at 4 °C overnight; washed with BC500, BC200 or BC100; Western blot
Settings: both partners purified

binding result: binds
B1: GST-PinX1 full-length (natural protein, human, UniProt Q96BK5 1-328, looked up)
chain: MSMLAERRRKQKWAVDPQNTAWSNDDSKFGQRMLEKMGWSKGKGLGAQEQGATDHIKVQVKNNHLGLGATINNEDNWIAHQDDFNQLLAELNTCHGQETTDSSDKKEKKSFSLEEKSKISKNRVHYMKFTKGKDLSSRSKTDLDCIFGKRQSKKTPEGDASPSTPEENETTTTSAFTIQEYFAKRMAALKNKPQVPVPGSDISETQVERKRGKKRNKEATGKDVESYLQPKAKRHTEGKPERAEAQERVAKKKSAPAEEQLRGPCWDQSSKASAQDAGDHVQPPEGRDFTLKPKKRRGKKKLQKPVEIAEDATLEETLVKKKKKKDSK
notes: PinX1, human, full length, cloned into pGEX-4T-3; also called GST-PinX1 FL; full length GST-PinX1; source: TSsetta (DE3) bacteria, IPTG-induced, purified (Glutathione-Sepharose 4B)

binding result: binds
B2: GST-PinX1 central section (aa 70–253) (domain or fragment, human, UniProt Q96BK5 70-253, looked up)
chain: TINNEDNWIAHQDDFNQLLAELNTCHGQETTDSSDKKEKKSFSLEEKSKISKNRVHYMKFTKGKDLSSRSKTDLDCIFGKRQSKKTPEGDASPSTPEENETTTTSAFTIQEYFAKRMAALKNKPQVPVPGSDISETQVERKRGKKRNKEATGKDVESYLQPKAKRHTEGKPERAEAQERVAKKK
notes: the truncations were of GST-PinX1; also called GST-PinX1 truncation; source: TSsetta (DE3) bacteria, IPTG-induced, purified (Glutathione-Sepharose 4B)
